Source: patent US20250326812A1 (CUGENE, published 2025)
Where no end group is shown, it is not given here.

Target: T1, P-0153, an IL-15/IL-15RαSushi+ Fc fusion protein
T1 construct: Heterodimeric knob/hole Fc fusion; It served as the plate-coated source of IL-15 in the peptide ELISA
Assay: ELISA; P-0153 coated on the plate at 1 ug/well, biotinylated peptide in 3-fold dilutions from 100 uM, streptavidin-HRP, TMB, OD450
Protocol: The five peptides, L01 to L05 (SEQ ID NO: 97-101) in Table 13 were synthesized and assessed for their binding to IL-15 in ELISA format. […] Streptavidin-HRP complex at the manufacturer's recommended concentration was added and signal was developed by TMB substrate.

T1 sequence (chain, as listed by the source, chain 1 of 2): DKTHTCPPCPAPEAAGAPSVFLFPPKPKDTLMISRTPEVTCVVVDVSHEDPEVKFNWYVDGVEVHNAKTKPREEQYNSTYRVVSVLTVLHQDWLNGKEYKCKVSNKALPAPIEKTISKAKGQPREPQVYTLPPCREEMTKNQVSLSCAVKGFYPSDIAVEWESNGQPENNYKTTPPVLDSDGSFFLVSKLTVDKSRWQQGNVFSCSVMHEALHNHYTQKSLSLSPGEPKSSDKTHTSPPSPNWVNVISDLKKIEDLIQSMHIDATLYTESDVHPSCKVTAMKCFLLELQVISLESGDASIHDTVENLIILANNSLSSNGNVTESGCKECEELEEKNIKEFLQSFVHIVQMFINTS
T1 sequence (chain, as listed by the source, chain 2 of 2): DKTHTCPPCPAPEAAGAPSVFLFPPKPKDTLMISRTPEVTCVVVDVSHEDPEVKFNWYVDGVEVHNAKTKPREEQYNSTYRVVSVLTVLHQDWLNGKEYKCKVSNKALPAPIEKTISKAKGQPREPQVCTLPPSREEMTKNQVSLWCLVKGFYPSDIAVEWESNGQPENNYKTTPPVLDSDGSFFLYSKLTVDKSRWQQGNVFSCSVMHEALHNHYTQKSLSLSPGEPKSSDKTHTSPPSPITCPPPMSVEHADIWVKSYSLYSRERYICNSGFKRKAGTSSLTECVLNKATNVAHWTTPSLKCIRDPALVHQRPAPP

| Binder | binding result | EC50 (read off the curve) |
| --- | --- | --- |
| LGAPDSQKLTTVDIVGGGGGGGGEISQASHYFERHL (also: biotinylated, site not given here) [L04] | binds |  |
| CEISQASHYFERHLC (also: biotinylated, position not given here, cyclized, mode and sites not given here, Synthetic peptide) [Blocking peptide L03 (cyclized IL-2Rβ loop 2)] |  | ~8 µM |
| EISQASHYFERHL (also: biotinylated, site not given here, also called IL-2Rβ loop 2 peptide (linear)) [L02] | binds |  |
